Laboratory results as given in article PMC5716044 (The Journal of Experimental Medicine, 2017).
Where a chain is given by its changes, count along the chain named. Names and notes keep the numbering of the source. Each block holds one binder with its values, some of them ahead of it.

Target: full-length EphA4 containing C-terminal FLAG and hexahistidine tags (EphA4-FLAGhis6) (human, UniProt P54764 20-986)
Experiment: pull-down

Sequence of full-length EphA4 containing C-terminal FLAG and hexahistidine tags (EphA4-FLAGhis6) (P54764 20-986): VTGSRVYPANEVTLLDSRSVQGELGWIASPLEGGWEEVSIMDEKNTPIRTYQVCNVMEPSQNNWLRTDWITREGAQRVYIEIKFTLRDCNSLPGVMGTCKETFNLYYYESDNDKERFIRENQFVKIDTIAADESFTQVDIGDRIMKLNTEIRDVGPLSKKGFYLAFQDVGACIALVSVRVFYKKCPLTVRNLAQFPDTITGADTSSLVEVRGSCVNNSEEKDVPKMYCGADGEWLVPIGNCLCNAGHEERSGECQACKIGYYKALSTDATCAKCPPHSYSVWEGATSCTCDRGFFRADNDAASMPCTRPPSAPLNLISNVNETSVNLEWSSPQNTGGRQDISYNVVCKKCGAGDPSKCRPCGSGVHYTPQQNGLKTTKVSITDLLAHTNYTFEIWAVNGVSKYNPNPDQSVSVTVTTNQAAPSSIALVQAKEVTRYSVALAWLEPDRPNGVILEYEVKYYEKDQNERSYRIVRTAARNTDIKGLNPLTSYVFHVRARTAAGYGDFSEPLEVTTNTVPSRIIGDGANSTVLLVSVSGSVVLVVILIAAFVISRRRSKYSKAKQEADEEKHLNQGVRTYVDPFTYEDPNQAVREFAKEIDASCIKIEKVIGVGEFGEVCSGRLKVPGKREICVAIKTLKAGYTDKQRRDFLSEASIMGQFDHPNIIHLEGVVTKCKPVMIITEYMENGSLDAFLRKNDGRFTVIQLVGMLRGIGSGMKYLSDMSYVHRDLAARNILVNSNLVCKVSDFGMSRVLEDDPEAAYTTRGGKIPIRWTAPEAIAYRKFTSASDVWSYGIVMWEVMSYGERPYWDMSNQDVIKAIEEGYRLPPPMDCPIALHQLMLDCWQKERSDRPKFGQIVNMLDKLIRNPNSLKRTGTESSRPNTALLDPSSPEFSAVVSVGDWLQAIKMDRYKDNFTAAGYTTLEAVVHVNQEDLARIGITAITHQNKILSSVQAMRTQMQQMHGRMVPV

binding result: binds
B1: SORLA YWTD repeat/EGF-like region (aa 758-1,076) fused to Fc, WT (Fc fusion, UniProt Q92673 758-1076, looked up)
chain: NEFILYAVRKSIYRYDLASGATEQLPLTGLRAAVALDFDYEHNCLYWSDLALDVIQRLCLNGSTGQEVIINSGLETVEALAFEPLSQLLYWVDAGFKKIEVANPDGDFRLTIVNSSVLDRPRALVLVPQEGVMFWTDWGDLKPGIYRSNMDGSAAYHLVSEDVKWPNGISVDDQWIYWTDAYLECIERITFSGQQRSVILDNLPHPYAIAVFKNEIYWDDWSQLSIFRASKYSGSQMEILANQLTGLMDMKIFYKGKNTGSNACVPRPCSLLCLPKANNSRSCRCPEDVSSSVLPSGDLMCDCPQGYQLKNNTCVKQEN

binding result: binds
B2: SORLA YWTD repeat/EGF-like region (aa 758-1,076) fused to Fc, T947M variant (Fc fusion, UniProt Q92673 758-1076, looked up)
chain: B1 chain with T190M
